This note sets out measurements from US20200206198A1, “CFTR CHANNEL ACTIVATOR FOR USE IN THE TREATMENT AND/OR PREVENTION OF GLUTEN SENSITIVITY CONDITIONS” (priority 2017, published 2020).

For the experiment, the target named is T1, CFTR (Homo sapiens, UniProt P13569).
T1 construct: Immunoprecipitations of endogenous proteins were performed on 500 μg of lysates from Caco-2 cells; host or cells: Caco-2, T84
Nature of the experiment: CFTR channel function in intestinal epithelial cells (forskolin-induced Isc in Ussing chambers; SPQ iodide efflux). It counts as cell-based. The procedure: Human colon adenocarcinoma-derived Caco-2 and T84 cells (Barone, M. V. et al. 2014; Luciani, A. et al. 2010) were obtained from the ATCC. Cells were maintained in T25 flask in Modified Eagle Medium (MEM) for Caco-2, or Ham's F12+DMEM (1:1) for T84, supplemented with 10% fetal bovine serum (FBS), 2 mM Glutamine+1% Non Essential Amino Acids (NEAA) and the antibiotics penicillin\streptomycin (100 units/ml) (all reagents from Lonza). Caco-2 cells were grown in Transwells (Corning, 3470 or 3460) under the normal condition. Briefly, 8×10^4 or 5×10^5 cells were seeded in 6.5-mm diameter or 12-mm diameter, respectively, and grown until the RT reached 800 to 1,200 Ω·cm^2. Transwells with a pore size of 0.4 μm were used. Medium in both the apical and baso lateral chambers was changed every other day. Cells were treated with 20 μg/ml of either with the α-gliadin peptide comprising the P31-43 amino acid sequence of α-gliadin LGQQQPFPPQQPY (SEQ ID 1) (below referred to as P31-43), which is known to induce an enterocyte stress response (Meresse, B. et al.2009; Barone, M. V. et al. 2014; Luciani, A. et al. 2010), the T-cell activating α-gliadin peptide comprising the P57-68 amino acid sequence of α-gliadin (QLQPFPQPQLPY SEQ ID 2)) (below referred to as P57-68) (Maiuri, L., et al. 2003; Meresse, B. et al.2009; 30 Barone, M. V. et al. 2014), or the scrambled GAVAAVGVVAGA (SEQ ID 3) control peptide (below referred to as PGAV), or with different modified P31-43, either biotin-tagged or not, for different time points (from 1 h short challenge up to 24 h). Cells were also treated with 50 or 100 5 μg/ml of P57-68 or PGAV peptides for 3 h.
Caco-2 or T84 cells were also treated with: CFTR potentiators VX-770 (Ivacaftor) (10 μM) or VX-532 (20 μM) (Selleck chemicals) or Genistein (10 μM) (Verkman, A. S. et al. 2005; Jih, K. Y. et al. 2013) (Sigma-Aldrich) or in presence or absence of CFTR inhibitor172 (CFTRinh172, 20 μM).
Human colon adenocarcinoma-derived Caco-2 and T84 cells were obtained from the ATCC. Cells were maintained in T25 flask in Modified Eagle Medium (MEM) for Caco-2, or Ham's F12+DMEM (1:1) for T84, supplemented with 10% fetal bovine serum (FBS), 2 mM Glutamine+1% Non Essential Amino Acids (NEAA) and the antibiotics penicillin\streptomycin (100 units/ml) (all reagents from Lonza) (Luciani, A., et al. 2010. Cells were grown in Transwells (Corning, 3470 or 3460) under the normal condition (Luciani, A., et al. 2012). Briefly, 8×10^4 or 5×10^5 cells were seeded in 6.5-mm diameter or 12-mm diameter, respectively, and grown until the RT reached 800 to 1,200 Ω·cm2. Transwells with a pore size of 0.4 μm were used. Medium in both the apical and basolateral chambers was changed every other day. […]

T1 sequence (P13569 whole entry): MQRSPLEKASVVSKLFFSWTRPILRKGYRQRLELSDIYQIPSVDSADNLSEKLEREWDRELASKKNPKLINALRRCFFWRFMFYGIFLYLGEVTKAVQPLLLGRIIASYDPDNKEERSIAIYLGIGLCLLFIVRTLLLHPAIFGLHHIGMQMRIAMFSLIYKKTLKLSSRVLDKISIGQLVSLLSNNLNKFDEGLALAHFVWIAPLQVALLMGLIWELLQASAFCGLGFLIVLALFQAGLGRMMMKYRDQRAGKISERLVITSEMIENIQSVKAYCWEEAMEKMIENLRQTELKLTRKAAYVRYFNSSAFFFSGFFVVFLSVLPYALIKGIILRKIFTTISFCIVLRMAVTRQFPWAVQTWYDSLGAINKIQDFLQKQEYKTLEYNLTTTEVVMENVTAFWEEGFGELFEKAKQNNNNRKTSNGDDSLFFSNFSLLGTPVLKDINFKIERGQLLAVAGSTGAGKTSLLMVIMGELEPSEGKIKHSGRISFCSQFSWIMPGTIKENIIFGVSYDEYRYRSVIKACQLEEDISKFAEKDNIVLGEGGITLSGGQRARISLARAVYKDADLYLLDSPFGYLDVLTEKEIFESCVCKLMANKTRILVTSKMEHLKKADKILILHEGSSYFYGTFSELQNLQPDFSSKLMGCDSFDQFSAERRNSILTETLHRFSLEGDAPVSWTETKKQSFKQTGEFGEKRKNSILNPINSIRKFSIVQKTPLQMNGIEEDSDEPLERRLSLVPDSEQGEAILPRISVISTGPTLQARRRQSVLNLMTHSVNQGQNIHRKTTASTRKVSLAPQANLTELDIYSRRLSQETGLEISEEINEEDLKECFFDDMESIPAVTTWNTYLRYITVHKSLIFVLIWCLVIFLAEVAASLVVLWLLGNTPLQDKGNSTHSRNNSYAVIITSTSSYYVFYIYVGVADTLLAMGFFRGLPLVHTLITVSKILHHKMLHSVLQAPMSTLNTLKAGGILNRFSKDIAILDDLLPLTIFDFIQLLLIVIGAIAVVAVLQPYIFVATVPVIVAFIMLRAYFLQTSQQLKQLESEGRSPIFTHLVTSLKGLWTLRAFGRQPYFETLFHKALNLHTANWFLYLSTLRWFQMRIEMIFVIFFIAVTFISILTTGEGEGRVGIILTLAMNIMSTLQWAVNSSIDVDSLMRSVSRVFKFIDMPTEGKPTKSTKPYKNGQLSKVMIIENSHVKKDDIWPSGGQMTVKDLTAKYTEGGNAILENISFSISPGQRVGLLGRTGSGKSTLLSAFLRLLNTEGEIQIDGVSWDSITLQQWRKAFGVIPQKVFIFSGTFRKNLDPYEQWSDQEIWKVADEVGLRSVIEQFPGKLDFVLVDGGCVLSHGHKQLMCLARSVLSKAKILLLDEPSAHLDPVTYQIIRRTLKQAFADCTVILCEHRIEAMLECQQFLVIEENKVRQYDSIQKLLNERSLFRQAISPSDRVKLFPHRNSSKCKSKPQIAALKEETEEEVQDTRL

Turning to “α-gliadin peptide LGQQQPFPPQQPY (SEQ ID 1), induces an enterocyte stress response (P31-43 sequence of alpha-gliadin)”, for the setting “20 μg/ml peptide, intestinal epithelial cells (Caco-2, T84)”, the “reduction of CFTR channel function in response to forskolin” value is “did reduce CFTR channel function”.
Turning to `CC(C)(C)c1cc(C(C)(C)C)c(NC(=O)c2c[nH]c3ccccc3c2=O)cc1O` [VX-770, N-(2,4-di-tert-butyl-5-hydroxyphenyl)-4-oxo-1,4-dihydroquinoline-3-carboxamide], where the note is “VX-770 10 μM, VX-532 20 μM, Genistein 10 μM, Caco-2 or T84 cells”, the “prevention of P31-43 induced decrease of CFTR function” value is listed as “Prevents P31-43 Induced Inhibition of CFTR Function”.
